Test results published in patent publication US20220185900A1 (Regeneron, published 2022).

T1: Macaca fascicularis (mf) RET.mmh (Macaca fascicularis)
T1 construct: also called monkey RET
T1 chain: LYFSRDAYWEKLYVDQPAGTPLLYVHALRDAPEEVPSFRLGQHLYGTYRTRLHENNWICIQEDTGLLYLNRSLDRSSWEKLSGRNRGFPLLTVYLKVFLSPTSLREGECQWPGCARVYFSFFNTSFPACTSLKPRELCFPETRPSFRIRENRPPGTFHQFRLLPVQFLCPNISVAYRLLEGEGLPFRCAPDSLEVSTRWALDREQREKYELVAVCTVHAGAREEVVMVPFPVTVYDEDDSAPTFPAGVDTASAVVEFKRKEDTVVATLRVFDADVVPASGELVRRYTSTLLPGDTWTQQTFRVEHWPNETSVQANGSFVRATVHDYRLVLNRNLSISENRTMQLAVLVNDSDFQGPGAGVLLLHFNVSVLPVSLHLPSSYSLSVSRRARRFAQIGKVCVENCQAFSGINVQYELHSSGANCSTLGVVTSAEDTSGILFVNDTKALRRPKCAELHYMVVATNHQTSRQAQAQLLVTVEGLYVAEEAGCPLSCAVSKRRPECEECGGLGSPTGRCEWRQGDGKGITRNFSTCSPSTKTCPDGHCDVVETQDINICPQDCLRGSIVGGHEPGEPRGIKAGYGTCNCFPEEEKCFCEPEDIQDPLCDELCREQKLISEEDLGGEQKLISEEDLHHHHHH

B1: H4H8046P (antibody, human IgG4, V domains shown)
VH: QVQLVQSRDEVKKPGASVKVSCKASGYTFTTYGISWVRQAPGQGLEWMGWINTYNGDTNYAQKVQDRVIMTTDTSTSTAYMELRSLRSDDTAVYFCAGARPLGGRRAFDIWGQGTMVTVSS
VL: DIQMTQSPSSLSASVGDRVTITCRASQGISHYLAWYQQKPGKVPKLLIYAASTLQSGVPSRFSGSGSGTDFTLTISSLQPEDVATYYCQKYNSVPWTFGQGTKVEIK
notes: human IgG4 Fc (H4H prefix)
B2: H4H8044P (antibody, human IgG4, V domains shown)
VH: QVQLVESGGGVVQPGRSLRLSCAASGFTFSGSGMHWVRQAPGKGLEWVAVIWEDGSNKYYADSVRGRFTISRDNFKNTLYLQMNSLRAEDTAVYYCARQTMVRGVIRFYYYYYGMDVWGQGTTVTVSS
VL: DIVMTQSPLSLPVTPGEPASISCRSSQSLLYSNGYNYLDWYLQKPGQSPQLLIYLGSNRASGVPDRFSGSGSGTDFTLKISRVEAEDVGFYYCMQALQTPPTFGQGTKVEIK
notes: human IgG4 Fc (H4H prefix)
B3: H4H8045P (antibody, human IgG4, V domains shown)
VH: EVQLVESGGALVQPGGSLRLSCAASGFTFSNYAMTWVRQAPGMGLEWVSGISSSGASTFYADSVKGRFTISRDNSKNTLYLQMNSLRAEDTAVYYCAKEDYWGWFDYWGQGTLVTVSS
VL: DIQLTQSPSFLSASVGDRVTITCWASQDVSSYLAWYQQEPGKAPKVLIYDASTLQSGVPSRFSGSGSGTEFTLTISSLQPEDFAPYYCQQLNSYPYTFGQGTKLEIK
notes: human IgG4 Fc (H4H prefix)

These binders were tested against T2, hRET.mFc (human) (assay: SPR Biacore T200, mAb capture, 25 C).
T2 construct: also called dimeric human RET
Experimental: (§1) Binding affinities and kinetic constants of human anti-RET antibodies were determined by surface plasmon resonance (Biacore T200) at […] (Tables 2-3). […] Binding equilibrium dissociation constants (KD) and dissociative half-lives (t_{1/2}) were calculated from the kinetic rate constants as: KD [M]=kd/kₐ; and t_{1/2}(min)=(ln2/(60*kd). Calculations were performed using BiacoreT200 evaluation software v1.0.
In the case of B1, the Kd is reported as 0.645 nM, the koff is reported as 0.000181 s⁻¹ and the kon is reported as 280000 M⁻¹ s⁻¹. It also gave a t½ of 64 min. B2 was tested, and the Kd was 1.97 nM, the koff was 0.000211 s⁻¹ and the kon was 107000 M⁻¹ s⁻¹. For the same binder, the t½ was 55 min. With B3 the Kd was 0.229 nM, the koff was 8.71e-05 s⁻¹ and the kon was 381000 M⁻¹ s⁻¹. The t½ was 133 min.

Molecular target: T1, Macaca fascicularis (mf) RET.mmh
Assay: SPR Biacore T200, mAb capture, 25 C
Experimental: as §1
B1 showed a Kd of 1.13 nM, a koff of 0.000315 s⁻¹ and a kon of 278000 M⁻¹ s⁻¹. It also gave a t½ of 37 min. Binder B2 has a Kd of 14.7 nM, a koff of 0.00135 s⁻¹ and a kon of 92000 M⁻¹ s⁻¹. The t½ was 9 min. In the case of B3, the Kd is reported as 14.6 nM, the koff is reported as 0.0028 s⁻¹ and the kon is reported as 192000 M⁻¹ s⁻¹. For the same binder, the t½ was 4 min.

Each binder was assayed against T3, hRET.mmh (human, UniProt P07949 29-635, biotinylated in the ELISA of Example 4 (biot-hRET.mmh); not in the SPR of Example 3) (assay: SPR Biacore T200, mAb capture, 25 C).
T3 construct: also called biot-hRET.mmh; soluble monomeric human RET
Experimental: as §1
For B1, the Kd was 0.984 nM, the koff was 0.000301 s⁻¹ and the kon was 306000 M⁻¹ s⁻¹. For the same binder, the t½ was 38 min. B2 showed a Kd of 5.49 nM, a koff of 0.000488 s⁻¹ and a kon of 88800 M⁻¹ s⁻¹. For the same binder, the t½ was 24 min. B3 gave a Kd of 0.883 nM, a koff of 0.000246 s⁻¹ and a kon of 279000 M⁻¹ s⁻¹. The t½ was 47 min.

What follows are binders tested against T2, hRET.mFc (assay: SPR Biacore T200, mAb capture, 37 C).
Experimental: as §1
With B1 the Kd was 2.05 nM, the koff was 0.000694 s⁻¹ and the kon was 338000 M⁻¹ s⁻¹. It also gave a t½ of 17 min. B2 was tested, and the Kd was 6.21 nM, the koff was 0.00085 s⁻¹ and the kon was 137000 M⁻¹ s⁻¹. The t½ was 14 min. Work on B3 yielded a Kd of 0.834 nM, a koff of 0.000382 s⁻¹ and a kon of 459000 M⁻¹ s⁻¹. For the same binder, the t½ was 30 min.

Molecular target: T1, Macaca fascicularis (mf) RET.mmh
Assay: SPR Biacore T200, mAb capture, 37 C
Experimental: as §1
With B1 the Kd was 1.92 nM, the koff was 0.00135 s⁻¹ and the kon was 704000 M⁻¹ s⁻¹. The t½ was 9 min. In the case of B2, the Kd is reported as 48.5 nM, the koff is reported as 0.00521 s⁻¹ and the kon is reported as 108000 M⁻¹ s⁻¹. It also gave a t½ of 2 min. B3 was tested, and the Kd was 50.3 nM, the koff was 0.0131 s⁻¹ and the kon was 261000 M⁻¹ s⁻¹. The t½ was 1 min.

Each binder was assayed against T3, hRET.mmh (assay: SPR Biacore T200, mAb capture, 37 C).
Experimental: as §1
With B1 the Kd was 1.81 nM, the koff was 0.0013 s⁻¹ and the kon was 718000 M⁻¹ s⁻¹. The t½ was 9 min. Binder B2 has a Kd of 18.6 nM, a koff of 0.00281 s⁻¹ and a kon of 151000 M⁻¹ s⁻¹. The t½ was 4 min. Work on B3 yielded a Kd of 3.22 nM, a koff of 0.00127 s⁻¹ and a kon of 395000 M⁻¹ s⁻¹. The t½ was 9 min.

What follows are binders tested against T3, hRET.mmh (assay: competition sandwich ELISA: 1 nM biot-hRET.mmh + antibody, plate-coated GDNF/GFRα1 co-complex).
In the case of B1, the “% Max Blocking” value is reported as 95% and the IC50 is reported as less than 0.25 nM. In the case of B2, the “% Max Blocking” value is reported as 91% and the IC50 is reported as 5.2 nM. B3 was tested, and the “% Max Blocking” value was 75% and the IC50 was 0.34 nM.
